Assay results published in publication doi:10.1101/2022.01.14.476386 (bioRxiv, 2022).
Numbering of substitutions follows the chain as printed. Numbers in names are those of the source.

B1: 4E-BP2 C91 (C35S/C73S/S91C), non-phosphorylated, labelled with Atto488 at position 91 (natural protein, UniProt Q13542 1-120, looked up)
chain: MSSSAGSGHQPSQSRAIPTRTVAISDAAQLPHDYSTTPGGTLFSTTPGGTRIIYDRKFLLDRRNSPMAQTPPSHLPNIPGVTSPGTLIEDCKVEVNNLNNLNNHDRKHAVGDDAQFEMDI
modifications: Atto488 maleimide on cysteine 91
B2: 4E-BP2 C14 (S14C/C35S/C73S), non-phosphorylated, labelled with Atto488 at position 14 (natural protein, UniProt Q13542 1-120, looked up)
chain: B1 chain with S14C, C91S
modifications: Atto488 maleimide on cysteine 14
B3: 4E-BP2 C35 (C73S), non-phosphorylated, labelled with Atto488 at position 35 (natural protein, UniProt Q13542 1-120, looked up)
chain: B1 chain with S35C, C91S
modifications: Atto488 maleimide on cysteine 35
B4: 4E-BP2 C73 (C35S), non-phosphorylated, labelled with Atto488 at position 73 (natural protein, UniProt Q13542 1-120, looked up)
chain: B1 chain with S73C, C91S
modifications: Atto488 maleimide on cysteine 73
B5: 4E-BP2 C121 (C35S/C73S/C121ins), non-phosphorylated, labelled with Atto488 at position 121 (natural protein, UniProt Q13542 1-120, looked up)
chain: MSSSAGSGHQPSQSRAIPTRTVAISDAAQLPHDYSTTPGGTLFSTTPGGTRIIYDRKFLLDRRNSPMAQTPPSHLPNIPGVTSPGTLIEDSKVEVNNLNNLNNHDRKHAVGDDAQFEMDIC
modifications: Atto488 maleimide on the inserted cysteine at position 121

Columns and labels:
[1] = biological target: T1, eukaryotic initiation factor 4E (eIF4E) (UniProt P06730 1-217); assay: fluorescence correlation spectroscopy
[2] = biological target: T1, eukaryotic initiation factor 4E (eIF4E); assay: fluorescence anisotropy decay

T1 sequence (P06730 whole entry): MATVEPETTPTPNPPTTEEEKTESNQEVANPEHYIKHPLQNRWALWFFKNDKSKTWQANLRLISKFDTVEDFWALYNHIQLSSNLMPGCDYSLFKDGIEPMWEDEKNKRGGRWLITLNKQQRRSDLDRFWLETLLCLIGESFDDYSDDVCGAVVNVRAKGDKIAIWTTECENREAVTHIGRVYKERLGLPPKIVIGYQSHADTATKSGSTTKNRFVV

Row | Binder | binding result [1] | binding result [2]
1 | B1 | binds | –
2 | B2 | – | binds
3 | B3 | – | binds
4 | B4 | binds | –
5 | B5 | binds | –
